Test results published in US20190046657A1.
Each block holds one molecule with its values, some of them ahead of it.

What was measured:
[1] = target: mannose-6-phosphate receptor (M6PR) expressed on CCD986SK cells (human skin fibroblasts) (human); experiment: cell-based or functional assay
[2] = target: mannose-6-phosphate receptor (M6PR); experiment: SPR (BIACORE T200), M6PR amine-coupled to CM5 chip, analyte 200 nM to 12.5 nM in HBS-EP
[3] = target: mannose-6-phosphate receptor (M6PR); experiment: SPR (BIACORE T200), M6PR on CM5 chip; the reference itself
[4] = target: mannose-6-phosphate receptor (M6PR); experiment: SPR (BIACORE T200), M6PR amine-coupled to CM5 chip, analyte 100 nM to 6.24 nM, HBS-EP pH 7.5, 1:1 Langmuir model
[5] = target: mannose-6-phosphate receptor (M6PR); experiment: SPR (BIACORE T200), M6PR amine-coupled to CM5 chip, analyte 50 nM to 3.125 nM, HBS-EP pH 7.5, 1:1 Langmuir model
[6] = target: mannose-6-phosphate receptor (M6PR); experiment: SPR, summary table; relative to galsulfase
[7] = target: mannose-6-phosphate receptor (M6PR); experiment: SPR (BIACORE T200), M6PR on CM5 chip; relative to agalsidase beta
[8] = target: mannose-6-phosphate receptor (M6PR); experiment: SPR, summary table; relative to agalsidase β
[9] = target: mannose-6-phosphate receptor (M6PR); experiment: SPR (BIACORE T200), M6PR amine-coupled to CM5 chip
[10] = target: mannose-6-phosphate receptor (M6PR); experiment: SPR, summary table; relative to imiglucerase
[11] = target: mannose-6-phosphate receptor (M6PR); experiment: SPR (BIACORE T200), M6PR amine-coupled to CM5 chip, analyte 200 nM to 12.5 nM, HBS-EP pH 7.5, 1:1 Langmuir model
[12] = target: mannose-6-phosphate receptor (M6PR); experiment: SPR, summary table; relative to iduronidase
[13] = target: mannose-6-phosphate receptor (M6PR); experiment: SPR (BIACORE T200), M6PR amine-coupled to CM5 chip, analyte 100 nM to 6.25 nM, HBS-EP pH 7.5, 1:1 Langmuir model

Molecule: galsulfase (from UniProt P15848 39-533) (enzyme)
Kd [4]: 0.00038 µM
koff [4]: 0.0013 s⁻¹
kon [4]: 3.49e+06 M⁻¹ s⁻¹

Molecule: iduronidase (from UniProt P35475 26-653) (enzyme)
Kd [5]: 0.00059 µM
koff [5]: 0.00565 s⁻¹
kon [5]: 1.69e+07 M⁻¹ s⁻¹

B1: long-acting agalsidase β conjugate (agalsidase β-polyethylene glycol linker-immunoglobulin Fc conjugate) (protein, part only; not given: Fc and PEG linker, UniProt P06280 32-429, looked up, not shown: a dimerising Fc or GST)
chain: LDNGLARTPTMGWLHWERFMCNLDCQEEPDSCISEKLFMEMAELMVSEGWKDAGYEYLCIDDCWMAPQRDSEGRLQADPQRFPHGIRQLANYVHSKGLKLGIYADVGNKTCAGFPGSFGYYDIDAQTFADWGVDLLKFDGCYCDSLENLADGYKHMSLALNRTGRSIVYSCEWPLYMWPFQKPNYTEIRQYCNHWRNFADIDDSWKSIKSILDWTSFNQERIVDVAGPGGWNDPDMLVIGNFGLSWNQQVTQMALWAIMAAPLFMSNDLRHISPQAKALLQDKDVIAINQDPLGKQGYQLRQGDNFEVWERPLSGLAWAVAMINRQEIGGPRSYTIAVASLGKGVACNPACFITQLLPVKRKLGFYEWTSRLRSHINPTGTVLLQLENTMQMSLKDLL
modifications: N-terminus covalently linked to a 10 kDa polyethylene glycol linker (ALD-PEG-ALD), whose other end is linked to the N-terminus of one chain of the immunoglobulin Fc
relative KD / binding affinity (% of agalsidase beta) [7]: 67.6%
relative ka (% of agalsidase beta) [7]: 70.4%
relative kd (% of agalsidase beta) [7]: 101%
Intracellular uptake (vs. 1st ERT) [1]: 47%
intracellular uptake activity (Kuptake) [1]: 29.3 nM
Binding affinity to M6PR (vs. 1st ERT) [8]: 68%
Kd [9]: 0.0296 µM
koff [9]: 0.00277 s⁻¹
kon [9]: 80000 M⁻¹ s⁻¹

B2: long-acting imiglucerase conjugate (imiglucerase-polyethylene glycol linker-immunoglobulin Fc conjugate) (protein, part only; not given: Fc and PEG linker, human, UniProt P04062 40-536, looked up, not shown: a dimerising Fc or GST)
chain: ARPCIPKSFGYSSVVCVCNATYCDSFDPPTFPALGTFSRYESTRSGRRMELSMGPIQANHTGTGLLLTLQPEQKFQKVKGFGGAMTDAAALNILALSPPAQNLLLKSYFSEEGIGYNIIRVPMASCDFSIRTYTYADTPDDFQLHNFSLPEEDTKLKIPLIHRALQLAQRPVSLLASPWTSPTWLKTNGAVNGKGSLKGQPGDIYHQTWARYFVKFLDAYAEHKLQFWAVTAENEPSAGLLSGYPFQCLGFTPEHQRDFIARDLGPTLANSTHHNVRLLMLDDQRLLLPHWAKVVLTDPEAAKYVHGIAVHWYLDFLAPAKATLGETHRLFPNTMLFASEACVGSKFWEQSVRLGSWDRGMQYSHSIITNLLYHVVGWTDWNLALNPEGGPNWVRNFVDSPIIVDITKDTFYKQPMFYHLGHFSKFIPEGSQRVGLVASQKNDLDAVALMHPDGSAVVVVLNRSSKDVPLTIKDPAVGFLETISPGYSIHTYLWRRQ
modifications: N-terminus covalently linked to a 10 kDa polyethylene glycol linker (ALD-PEG-ALD), whose other end is linked to the N-terminus of one chain of the immunoglobulin Fc
Binding affinity to M6PR (vs. 1st ERT) [10]: 22%
Kd [11]: 0.0796 µM
koff [11]: 0.0039 s⁻¹
kon [11]: 49000 M⁻¹ s⁻¹

B3: long-acting iduronidase conjugate (laronidase-polyethylene linker-immunoglobulin Fc conjugate) (protein, part only; not given: Fc and PEG linker, UniProt P35475 26-653, looked up, not shown: a dimerising Fc or GST)
chain: AEAPHLVHVDAARALWPLRRFWRSTGFCPPLPHSQADQYVLSWDQQLNLAYVGAVPHRGIKQVRTHWLLELVTTRGSTGRGLSYNFTHLDGYLDLLRENQLLPGFELMGSASGHFTDFEDKQQVFEWKDLVSSLARRYIGRYGLAHVSKWNFETWNEPDHHDFDNVSMTMQGFLNYYDACSEGLRAASPALRLGGPGDSFHTPPRSPLSWGLLRHCHDGTNFFTGEAGVRLDYISLHRKGARSSISILEQEKVVAQQIRQLFPKFADTPIYNDEADPLVGWSLPQPWRADVTYAAMVVKVIAQHQNLLLANTTSAFPYALLSNDNAFLSYHPHPFAQRTLTARFQVNNTRPPHVQLLRKPVLTAMGLLALLDEEQLWAEVSQAGTVLDSNHTVGVLASAHRPQGPADAWRAAVLIYASDDTRAHPNRSVAVTLRLRGVPPGPGLVYVTRYLDNGLCSPDGEWRRLGRPVFPTAEQFRRMRAAEDPVAAAPRPLPAGGRLTLRPALRLPSLLLVHVCARPEKPPGQVTRLRALPLTQGQLVLVWSDEHVGSKCLWTYEIQFSQDGKAYTPVSRKPSTFNLFVFSPDTGAVSGSYRVRALDYWARPGPFSDPVPYLEVPVPRGPPSPGNP
modifications: N-terminus covalently linked to a 10 kDa polyethylene glycol linker (ALD-PEG-ALD), whose other end is linked to the N-terminus of one chain of the immunoglobulin Fc
Binding affinity to M6PR (vs. 1st ERT) [12]: 13%
Kd [13]: 0.00472 µM
koff [13]: 0.00223 s⁻¹
kon [13]: 474000 M⁻¹ s⁻¹

Further lines, results first:

intracellular uptake activity (Kuptake) [1]: 13.7 nM
Kd [2]: 0.02 µM
koff [2]: 0.00273 s⁻¹
kon [2]: 135000 M⁻¹ s⁻¹
relative KD / binding affinity (% of agalsidase beta) [3]: 100%
relative ka (% of agalsidase beta) [3]: 100%
relative kd (% of agalsidase beta) [3]: 100%
Molecule: agalsidase β (from UniProt P06280 32-429) (enzyme)

Kd [4]: 0.0173 µM
koff [4]: 0.00387 s⁻¹
kon [4]: 232000 M⁻¹ s⁻¹
Molecule: imiglucerase (from UniProt P04062 40-536) (enzyme)

Kd [4]: 0.00148 µM
koff [4]: 0.00122 s⁻¹
kon [4]: 832000 M⁻¹ s⁻¹
Binding affinity to M6PR (vs. 1st ERT) [6]: 25%
Molecule: long-acting galsulfase conjugate (galsulfase-polyethylene glycol linker-immunoglobulin Fc conjugate) (from UniProt P15848 39-533)
